The text below walks through data of patent US20140155466.

Test in all cases: cell_activity
Series [1] relates to Human autoantibodies against alpha1-adrenergic receptor (alpha1-receptor AAB) (Homo sapiens). As to conditions: pulmonary hypertension patient 2, 5.17 without aptamer; 100 nM.
Series [2] deals with Human autoantibodies against beta1-adrenergic receptor (beta1-receptor AAB, 2nd loop) (Homo sapiens).
Series [3] deals with Human autoantibodies against beta2-adrenergic receptor (beta2-receptor AAB) (Homo sapiens). The note with it: 100 nM.
Series [4] concerns Human autoantibodies against endothelin receptor type A (ETA-AAB) (Homo sapiens). The note with it: pulmonary hypertension patient 2, -4.8 without aptamer.
In series [5] the test system is Human autoantibodies against muscarinic M2 receptor (M2-receptor AAB) (Homo sapiens). The note with it: -3.67 without aptamer, 100 nM.
Series [6] deals with Human alpha1/beta2-receptor autoantibodies (Alzheimer patient) (Homo sapiens). As to conditions: Alzheimer patient 1, 8.0 without aptamer; 100 nM.
The test system of series [7] is Human autoantibodies against PAR receptor (PAR-receptor AAB) (Homo sapiens). As to conditions: Raynaud patient 1, 7.33 without aptamer; 100 nM.
In series [8] the test system is Human autoantibodies against angiotensin II AT1 receptor (AT1-receptor AAB) (Homo sapiens). As to conditions: malignant hypertension, 7.83 without aptamer; kidney transplant 6.17 to 0.17; 100 nM.
The test system of series [9] is Human autoantibodies against beta1-adrenergic receptor (beta1-receptor AAB, 1st loop) (Homo sapiens). As to conditions: DCM patient 1, 6.33 without aptamer; 100 nM.

In the case of “CGCCTAGGTTGGGTAGGGTGGTGGCG [NU172 (ARC2172)]”, the activity (delta beats/15 sec) in [1] stood at 2; in series [2] (peripartum cardiomyopathy, 6.33 without aptamer, 100 nM, partial) it was 4; in series [3] (glaucoma patient 1, 7.33 without aptamer, Chagas megacolon patient 6.17 to 2.0), 5.33; in series [4] (sign as printed) it was 2; in series [5] (sign as printed) it was 3.

For “GGTTGGTGTGGTTGG [3'-dT cap thrombin-aptamer]”, the activity (delta beats/15 sec) is 0 in [2] (3'-dT cap, DCM, 6.0 without aptamer, 100 nM) and 0 in series [3] (3'-dT cap, Alzheimer, 5.17 without aptamer).

In series [2] (loop not stated, 100 nM FITC-aptamer), “GGTTGGTGTGGTTGG [5'-FITC-thrombin-aptamer]” gave an activity (% neutralization) of 50.

As to “GGTTGGTGTGGTTGG [thrombin-aptamer ARC183]”, the activity (delta beats/15 sec) is 0 in series [6]; 0.17 in [7]; 0.33 in [1]; 0.67 in series [8]; -0.17 in [9]; 0.17 in series [2] (DCM patient 1, 5.33 without aptamer, 100 nM aptamer, rat cardiomyocyte bioassay). Besides, the activity (delta beats/15 sec) in series [3] (glaucoma patient 1, 7.33 without aptamer) came to 0.33; in [4] (100 nM), 0.33; in series [5] (Chagas cardiomyopathy) it was 0.5.
